{
  "source": "patent US20220313789A1",
  "about": "“TARGETING MELANOCORTIN 3 RECEPTOR FOR TREATMENT/PREVENTION OF EATING, METABOLISM, AND/OR EMOTIONAL DISORDERS” (The Regents of the University of Michigan, priority 2019, published 2022)",
  "key": {"MC3R KO mice": {"test_system": "MC3R KO mice", "assay": "Feeding after i.c.v. administration in MC3R KO mice", "type": "in vivo", "procedure": "FIG. 13. […] Data shown as mean+/−s.e.m. Panels A and B analyzed with Student's paired t-test. n=9 mice for panels A and B.\nB: 24-hour food intake following administration of vehicle (aCSF) or C18 to WT mice. […] C: Change in BW following injection of vehicle or C18 (5 ug). D and E: Cumulative food intake (D) and 24-hour food intake (E) following C18 or vehicle administration in MC3R KO mice. […] F: Cumulative food intake following administration of the MC3R antagonist C11 or vehicle. […] G: 24-hour food intake in WT mice following administration of C11. H: Change in BW following injection of vehicle or C11 (5 ug). I and J: Food intake following i.c.v. injection of vehicle (DMSO, 500 nl) or C11 (5 ug, 500 nl) in MC3R KO mice. […] Data represents mean+/−s.e.m. […] Panels B, C, G, H, and J analyzed with unpaired Student's t-test. n=7 mice and n=8 mice for vehicle and C18 groups in panels A-C. n=19 mice for panels F and G. n=6 mice for vehicle and n=8 mice for C11 group in panel H. n=12 mice for vehicle and C18 group in panels D and E. n=8 mice for vehicle and C11 groups in panels I and J.\n(§1) For central administration of MC3R agonist compounds we first administered vehicle injections (500 nl DMSO) for 2-4 consecutive days to habituate mice to handling and injection. […] Body weight was measured daily immediately prior to injections."}, "AgRP neurons": {"test_system": "AgRP neurons", "assay": "Feeding after MC3R agonist with chemogenetic (hM4Di) inhibition of AgRP neurons", "type": "in vivo, mice", "procedure": "FIG. 7. […] Either saline or CNO (1 mg/kg, i.p.) was administered fifteen minutes prior to i.c.v. injections. […] Data represented as mean+/−s.e.m.\nA and B: Schematic of experimental strategy to express inhibitory DREADD virus in hypothalamic AgRP neurons (A) and representative image of DREADD transduced AgRP neurons (B). Scale bar, 200 um. C: Food intake following administration of C18 in the presence of saline or CNO (0.1 mg/kg, i.p.). […] D: RNAscope analysis of MC3R expression in WT and AgRP-MC3R KI mice. […] Scale bar, 500 um.\nTo inhibit AgRP neurons, the arcuate nucleus of AgRP-Cre mice was targeted with stereotaxic viral injections of Cre-dependent AAV viral vectors expressing the chemogenetic inhibitor hM4Di (FIG. 7)."}, "MC3R [1]": {"target": "T1, MC3R (Mus musculus, UniProt P33033)", "T1 construct": "from tissue; host or cells: living mice (C57/BL6J background), central nervous system / hypothalamus", "T1 sequence (P33033 whole entry)": "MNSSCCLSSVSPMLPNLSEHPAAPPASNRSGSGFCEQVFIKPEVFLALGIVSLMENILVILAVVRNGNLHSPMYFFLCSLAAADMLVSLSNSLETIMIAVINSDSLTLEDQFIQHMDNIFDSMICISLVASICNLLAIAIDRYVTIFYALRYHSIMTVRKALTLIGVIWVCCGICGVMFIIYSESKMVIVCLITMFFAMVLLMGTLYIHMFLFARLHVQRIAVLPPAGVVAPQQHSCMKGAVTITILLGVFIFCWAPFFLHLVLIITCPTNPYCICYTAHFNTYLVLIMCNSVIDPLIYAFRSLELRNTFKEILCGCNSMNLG", "assay": "Novelty suppressed feeding test", "type": "in vivo, mice", "conditions": "i.c.v., NSF test", "procedure": "(§2) Anxiety behavioral assays were performed in the following order with 2-4 days separated between each anxiety assay: elevated plus maze, open field test, novelty suppressed feeding test. Behavioral assays were performed during the light cycle between 10 am-5 pm. Open field and elevated plus maze testing was performed in ad libitum fed mice with one exception.\nPrior to testing, mice were fasted overnight (6 pm-10 am). NSF testing was performed in the open field arena described above. Briefly, a single pellet of food (3-4 grams) was placed in the center of the open field. Mice were placed in the corner of the open field and their activity was automatically scored for ten minutes using animal tracking software. Latency to eat the food was manually recorded during testing. Feeding was scored as five consecutive seconds of chewing on the food."}, "MC3R [2]": {"target": "T1, MC3R", "assay": "Open field test", "type": "in vivo, mice", "procedure": "as §2\nOpen field tests were performed as previously described (Refs. 55-57; herein incorporated by reference in their entireties). Mice were placed in the corner of a 50 cm×50 cm open field chamber. The center of the arena was marked as the 25 cm×25 cm area in the center of the open field. Exploratory activity was recorded for five minutes using ANYmaze software (Stoelting). Entries to the center, time in the center, distance in the center, and total distance traveled were automatically recorded with video tracking software. For PG992 experiments, mice were randomly assigned to receive either vehicle or PG992 injections. One week later the order of treatments was reversed such that each mouse received both vehicle and PG992 treatment in random order. For DREADD mediated assays, mice were administered CNO on the day of testing. Differences in open field activity between DREADD transduced mice and WT littermates were compared on testing day in response to CNO treatment. Similarly, MC3R KO and WT mice were testing in the open field on the same day in random order and differences in exploratory activity were calculated as previously described."}, "MC3R [3]": {"target": "T1, MC3R", "assay": "MC3R agonist feeding assays (food intake, body weight) in WT mice", "type": "in vivo", "procedure": "Clozapine-N-Oxide (CNO) was purchased from Enzo Life Sciences. On the day of experiments fresh stock CNO (1 mg/0.1 ml) was prepared in water. CNO was administered via i.p. injections (200 ul Saline; 1 mg/kg). […] (5 ug; 500 nl DMSO).\nBehavioral assays were performed on ad libitum fed mice. Mice were single caged for at least one week prior to starting feeding assays. Feeding assays were performed during the light period.\nFor peripheral administration of MC3R agonist compounds, mice were first habituated to vehicle injections (i.p.; saline in 10% DMSO; 200 ul) for 2-4 consecutive days. Following habituation and consecutive days of stable food intake in response to vehicle injections, agonist compounds were administered (i.p.; 10 mg/kg; saline in 10% DMSO). Food intake was measured following drug or vehicle administration by carefully removing food from the food hopper and weighing on a scale. Cages were changed daily during acute feeding assays to prevent spillage of food from the food hopper.\nas §1"}, "MC3R [4]": {"target": "T1, MC3R", "assay": "Elevated plus maze", "type": "in vivo, mice", "procedure": "as §2\nTo perform elevated plus maze tests mice were initially placed into the closed arm of the elevated plus maze arena. The arena consisted of 2 50 cm long arms. One arm was enclosed by walls while the other arm was open. Activity in the maze was recorded for five minutes using animal tracking software (ANYmaze, Stoelting). Latency to enter the open arms, total distance traveled, entries to open arms, time in open arms, and distance traveled in the open arms was automatically calculated using tracking software. Treatment schedules for the elevated plus maze were identical to those described for the open field test."}, "[5]": {"conditions": "i.c.v. 5 ug in 500 nl DMSO vs vehicle"}, "[6]": {"conditions": "5 ug, i.c.v., elevated plus maze"}},
  "note": "“Also recorded” adds a separate entry of the source. Bridge positions count the residues as written; N and C are the ends. Square brackets hold non-standard residues; d marks the D form. d2Nal = N[C@H](Cc1ccc2ccccc2c1)C(=O)O; Nle = CCCC[C@H](N)C(=O)O",
  "data": [
    {"substance": "Ac-Arg-Arg-(pI)DPhe-Tic-NH2 [compound 18]", "values": [
      {"measurement": "Food intake, cumulative/acute and 24-hour", "setting": "MC3R KO mice; i.c.v. 5 ug vs vehicle", "result": "No difference in food intake was detected following C18 administration"},
      {"measurement": "Food intake in the presence of saline or CNO", "setting": "AgRP neurons; C18, CNO 0.1 mg/kg, i.p., inhibitory DREADD in AgRP neurons", "result": "increased food intake following administration of saline but not following CNO mediated inhibition of AgRP neurons"}
    ]},
    {"substance": "Ac-Nle-c[Asp-Trp-Pro-DNal(2′)-Arg-Trp-Lys]-NH2 (Ac-[Nle]DWP[d2Nal]RWK-NH2; lactam 2-8) [PG992]", "values": [
      {"measurement": "distance traveled", "setting": "MC3R [1]", "result": "without significantly effecting total distance traveled; also recorded: did not affect distance traveled"},
      {"measurement": "latency to eat", "setting": "MC3R [1]", "result": "decreased latency to feed; also recorded: reduced latency to eat"},
      {"measurement": "total time eating", "setting": "MC3R [1]", "result": "increased total time eating"},
      {"measurement": "24-hour food intake", "setting": "MC3R KO mice; [5]", "result": "No significant difference in 24-hour food intake"},
      {"measurement": "Acute food intake", "setting": "MC3R KO mice; [5]", "result": "No significant difference in food intake"},
      {"measurement": "body weight", "setting": "MC3R KO mice; icv", "result": "no activity on food intake or body weight"},
      {"measurement": "food intake", "setting": "MC3R KO mice; icv", "result": "no activity on food intake or body weight; also recorded: No effect on food intake"},
      {"measurement": "distance traveled in the center", "setting": "MC3R [2]; 5 ug, i.c.v.", "result": "increased the distance traveled in the center; also recorded: increased distance traveled in the center"},
      {"measurement": "entries in the center", "setting": "MC3R [2]; 5 ug, i.c.v.", "result": "increased entries to the center; also recorded: increased distance traveled in the center and entries in the center"},
      {"measurement": "latency to enter the center", "setting": "MC3R [2]; 5 ug, i.c.v.", "result": "decreased the latency to enter the center; also recorded: reduced latency to enter the center of the arena"},
      {"measurement": "total distance traveled", "setting": "MC3R [2]; 5 ug, i.c.v.", "result": "Total distance traveled was also increased"},
      {"measurement": "anxiolytic activity", "setting": "MC3R [2]; ICV, elevated plus maze, and novelty suppressed feeding assay", "result": "clear anxiolytic activity"},
      {"measurement": "weight gain", "setting": "MC3R [3]; 3 days of treatment", "result": 8, "unit": "%"},
      {"measurement": "24 h food intake", "setting": "MC3R [3]; PG990 series of peptides, route not given in the sentence", "result": "increases 24 h food intake"},
      {"measurement": "stimulation of food intake", "setting": "MC3R [3]; central injection (i.c.v.), 5 μg", "result": "~50", "unit": "%"},
      {"measurement": "24-hour food intake compared with chemogenetic (DREADD) neuron activation", "setting": "MC3R [3]; i.c.v. PG992 vs CNO/hM3Dq", "result": "increased 24-hour food intake to a greater extent than chemogenetic activation of AgRP neurons; also recorded: even more potent inducer of 24 h food intake than DREADD activation of MC3R ARC neurons; also recorded: produced a greater change in 24-hour food intake than AgRP neuron activation"},
      {"measurement": "Feeding in response to central administration", "setting": "MC3R [3]; i.c.v., 5 ug in 500 nl DMSO, vs vehicle", "result": "acutely stimulated feeding at all measured time-points"},
      {"measurement": "Food intake at 4 and 24 hours", "setting": "MC3R [3]; i.c.v., 5 ug, single injection", "result": "increased food intake at both 4 hours and 24 hours post injection"},
      {"measurement": "increase in body weight each treatment day", "setting": "MC3R [3]; once daily i.c.v. injections", "result": "2-3%"},
      {"measurement": "Daily food intake", "setting": "MC3R [3]; once daily i.c.v. injections (5 ug)", "result": "increased daily 24-hour food intake on each day of treatment"},
      {"measurement": "duration of food intake stimulation", "setting": "MC3R [3]; single i.c.v. injection", "result": "at least 24 hours"},
      {"measurement": "Entries to the open arms", "setting": "MC3R [4]; [6]", "result": "trended towards being higher; also recorded: entered the open arms more frequently"},
      {"measurement": "distance traveled in the open arms", "setting": "MC3R [4]; [6]", "result": "increasing distance traveled in the open arms; also recorded: traveled more distance in the open arms"},
      {"measurement": "latency to enter the open arms", "setting": "MC3R [4]; [6]", "result": "decreasing latency to enter the open arms; also recorded: entered the open arms faster"},
      {"measurement": "total distance traveled", "setting": "MC3R [4]; [6]", "result": "increased total distance traveled in the elevated plus maze"},
      {"measurement": "PG992 induced stimulation of food intake under AgRP neuron inhibition", "setting": "AgRP neurons; CNO (1 mg/kg, i.p.) before PG992 5 ug i.c.v., hM4Di in AgRP neurons", "result": "significantly reduced the ability of PG992 to stimulate feeding; also recorded: significantly reduced in the presence of AgRP neuron inhibition"},
      {"measurement": "4-hour, 8-hour and 24-hour food intake", "setting": "AgRP neurons; PG992 5 ug i.c.v., saline or CNO (1 mg/kg, i.p.) fifteen minutes before", "result": "robustly stimulated food intake at 4 hours, 8 hours, and 24 hours; also recorded: increased food intake following both saline and CNO injections at all time-points"}
    ]},
    {"substance": "H-Tyr-Val-Met-Gly-His-Phe-Arg-DTrp-Asp-Arg-Phe-Gly-OH [D-Trp8-γ-MSH]", "values": [
      {"measurement": "anxiety in the elevated plus maze assay", "setting": "MC3R [4]; single peripheral injection", "result": "trend towards reduction of anxiety"}
    ]}
  ]
}
